# According to publication PMC6838084, “Direct, gabapentin-insensitive interaction of a soluble form of the calcium channel subunit α2δ-1 with thrombospondin-4” (Scientific Reports, 2019):
# B1: thrombospondin-2 (TSP-2), recombinant full-length murine, N-terminal double strep II-tag (natural protein)
# chain: not shown
# notes: thrombospondin-2, mouse, called full-length; the PCR product lacks the natural signal peptide and was cloned in frame with the BM-40 signal peptide; A thrombin cleavage site lies between the tag and the protein; Trimer held by interchain disulphide bonds; heavily glycosylated; source: HEK293-EBNA, secreted, purified from culture supernatant (streptactin-sepharose)
# B2: thrombospondin-4 (TSP-4), recombinant full-length rat, N-terminal double strep II-tag (natural protein)
# chain: not shown
# notes: thrombospondin-4, rat, called full-length; the PCR product lacks the natural signal peptide and was cloned in frame with the BM-40 signal peptide; A thrombin cleavage site lies between the tag and the protein; Pentamer held by interchain disulphide bonds; glycosylated; also called full-length pentameric TSP-4; source: HEK293-EBNA, secreted, purified from culture supernatant (streptactin-sepharose)
# B3: cartilage oligomeric matrix protein (COMP, TSP-5), recombinant full-length rat, N-terminal double strep II-tag (natural protein)
# chain: not shown
# notes: cartilage oligomeric matrix protein, rat, called full-length; the PCR product lacks the natural signal peptide and was cloned in frame with the BM-40 signal peptide; A thrombin cleavage site lies between the tag and the protein; Pentamer held by interchain disulphide bonds; also called TSP-5/COMP; source: HEK293-EBNA, secreted, purified from culture supernatant (streptactin-sepharose)
# Target: the molecule itself
# Experiment: SDS-PAGE and immunoblot without and with DTT; purified proteins separated under non-reducing and reducing conditions; composite agarose/polyacrylamide gel for intact TSPs; oligomers held by interchain disulphide bonds
row,Protein,stoichiometry N
1,B1,3
2,B2,5
3,B3,5
